Patent publication US20250129146A1, “COMBINED CANCER THERAPY WITH AN EPITHELIAL CELL ADHESION MOLECULE (EPCAM) INHIBITOR AND A WNT INHIBITOR” (ACADEMIA SINICA, priority 2021, published 2025)
Entries after “also recorded” stand apart in the source; their conditions may differ.

Experiments:
[1] = test system: colon cancer cells (SW620, HCT116); settings: general description of other anti-EpCAM antibodies; cited from earlier work
recombinant LRP6 = molecular target: T1, recombinant LRP6 (Homo sapiens, UniProt O75581); experiment: ELISA of EpEX binding to Wnt receptor-coated plates (LRP6); settings: EpEX-His alone, 2 hours; optical density at 450 nm
T1 construct: purchased Proteintech
T1 sequence (O75581 20-1613): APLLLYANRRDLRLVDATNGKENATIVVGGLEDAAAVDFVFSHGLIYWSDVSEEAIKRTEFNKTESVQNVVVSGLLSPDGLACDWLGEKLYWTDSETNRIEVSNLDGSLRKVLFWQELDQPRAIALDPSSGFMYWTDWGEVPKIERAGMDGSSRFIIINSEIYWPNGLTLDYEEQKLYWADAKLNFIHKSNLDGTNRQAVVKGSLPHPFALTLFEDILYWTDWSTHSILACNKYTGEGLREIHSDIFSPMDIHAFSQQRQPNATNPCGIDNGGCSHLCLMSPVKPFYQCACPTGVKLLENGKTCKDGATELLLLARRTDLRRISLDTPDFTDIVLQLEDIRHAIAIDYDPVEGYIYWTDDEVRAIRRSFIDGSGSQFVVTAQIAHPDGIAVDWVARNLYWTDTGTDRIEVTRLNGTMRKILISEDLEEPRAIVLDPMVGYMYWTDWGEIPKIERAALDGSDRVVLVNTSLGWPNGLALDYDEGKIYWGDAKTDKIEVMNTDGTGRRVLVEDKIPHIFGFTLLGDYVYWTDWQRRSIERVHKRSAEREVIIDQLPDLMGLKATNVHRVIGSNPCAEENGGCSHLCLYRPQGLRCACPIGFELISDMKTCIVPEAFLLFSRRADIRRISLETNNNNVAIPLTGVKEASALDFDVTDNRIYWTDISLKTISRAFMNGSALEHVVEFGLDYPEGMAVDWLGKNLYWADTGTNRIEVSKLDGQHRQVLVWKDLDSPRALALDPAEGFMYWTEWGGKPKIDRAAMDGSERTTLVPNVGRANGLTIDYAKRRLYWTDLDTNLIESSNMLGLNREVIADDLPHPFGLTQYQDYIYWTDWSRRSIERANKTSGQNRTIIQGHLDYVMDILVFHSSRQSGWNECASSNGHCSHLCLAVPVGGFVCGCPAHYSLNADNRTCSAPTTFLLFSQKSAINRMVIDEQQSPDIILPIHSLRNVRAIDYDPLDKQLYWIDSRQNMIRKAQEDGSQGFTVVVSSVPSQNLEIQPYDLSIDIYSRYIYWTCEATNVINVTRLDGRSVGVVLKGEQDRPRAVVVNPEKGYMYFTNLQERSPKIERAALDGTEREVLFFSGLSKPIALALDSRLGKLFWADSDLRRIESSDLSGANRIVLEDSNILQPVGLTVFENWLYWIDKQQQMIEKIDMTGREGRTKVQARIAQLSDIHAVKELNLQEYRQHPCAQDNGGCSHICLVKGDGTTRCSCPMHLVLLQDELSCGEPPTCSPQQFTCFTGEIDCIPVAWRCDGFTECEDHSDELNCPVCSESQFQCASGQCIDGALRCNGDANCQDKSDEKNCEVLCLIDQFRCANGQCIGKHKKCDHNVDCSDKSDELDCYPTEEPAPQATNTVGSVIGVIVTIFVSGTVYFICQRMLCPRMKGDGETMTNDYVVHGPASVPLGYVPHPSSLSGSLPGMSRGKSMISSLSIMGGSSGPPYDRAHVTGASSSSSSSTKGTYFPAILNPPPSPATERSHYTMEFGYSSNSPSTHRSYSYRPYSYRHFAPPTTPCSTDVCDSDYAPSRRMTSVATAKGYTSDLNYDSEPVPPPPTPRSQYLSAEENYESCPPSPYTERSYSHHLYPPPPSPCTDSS
Experimental: (§1) For ELISA, wells (at least 6 wells per single protein) were coated with recombinant FZD6 (Proteintech), recombinant FZD7 (Proteintech), recombinant LRP5 (Proteintech), recombinant LRP6 (Proteintech) overnight at 4° C. The wells were then blocked with 1% BSA and treated with EpEX-his (Produced in house by Expi293 Expression System) for 2 hours. Otherwise, EpEX-His was incubated with EpAb2-6 overnight and the complex was used to treat the protein-coated plates for 2 hours. Further anti-His antibody (abeam) was used and TMB was performed to record optical density at 450 nm.

recombinant FZD7 = molecular target: T2, recombinant FZD7 (Homo sapiens, UniProt O75084); experiment: ELISA of EpEX binding to Wnt receptor-coated plates (FZD7)
T2 construct: purchased Proteintech
Experimental: as §1

[2] = test system: TACE and presenilin-2 (PS2); experiment: Phosphorylation of ADAM17 (TACE) and Presenilin2 (western blot); assay type: cell-based, human; settings: HCT116 cells; EpEX, Wnt3A for 8 h
Experimental: For western blotting, cells were extracted using radioimmunoprecipitation assay (RIPA) buffer [(0.01 M sodium phosphate, pH 7.2), 150 mM NaCl, 2 mM EDTA, 50 mM NaF, 1% Nonidet P-40, 1% sodium deoxycholate, and 0.1% SDS)] containing phosphatase inhibitor (Roche) and protease inhibitor (Roche) cocktail. Equal amounts of protein were separated by SDS-PAGE and then transferred to PVDF membranes. The membranes were blocked with 3% BSA in TBST (Blocking solution) and incubated with necessary primary antibodies in the blocking solution overnight at 4° C. Membranes were then incubated with HRP-conjugated secondary antibodies in the blocking solution for 1 h at room temperature, and protein expression were detected. Antibodies used: anti-α-tubulin (Sigma), anti-EpCAM (abeam), anti-Active β-Catenin (Millipore), anti-total β-Catenin (abeam), anti-Frizzled 6 (CST), anti-Frizzled 7 (Santa Cruz Biotech), anti-LRP5 (abcam), anti-Phospho-LRP5 (abcam), anti-Phospho-LRP6 (CST), anti-LRP6 (CST) and anti-EpEX antibody EpAb3-5 (Produced in house), anti-ADAM17 (abcam), anti-phopho-ADAM17 (abcam), anti-Presenilin2 (abcam), anti-phospho-Presenilin2 (S327) (abcam), anti-phospho-Presenilin2 (S330) (abcam) and anti-Axin2 (CST).
To study the kinase activity of GSK3 and CK1, 10^6 cells were seeded overnight and treated with GSK3 inhibitor BIO (Sigma) or CK1 inhibitor PF-670462 (selleckchem) for 8 h. […]

EpCAM = molecular target: T3, EpCAM (Homo sapiens, UniProt P16422); experiment: Antibody binding to EpCAM wild-type, deletion and point mutants in HEK293T cells (immunofluorescence, flow cytometry, cellular ELISA); settings: EGF-like domain deletion and point mutants
T3 construct: HEK293T cells were transfected with full length or EGF like-domain deletion mutant EpCAM-V5; V5; expressed in transfected cells; host or cells: HEK293T
T3 sequence (P16422 24-314): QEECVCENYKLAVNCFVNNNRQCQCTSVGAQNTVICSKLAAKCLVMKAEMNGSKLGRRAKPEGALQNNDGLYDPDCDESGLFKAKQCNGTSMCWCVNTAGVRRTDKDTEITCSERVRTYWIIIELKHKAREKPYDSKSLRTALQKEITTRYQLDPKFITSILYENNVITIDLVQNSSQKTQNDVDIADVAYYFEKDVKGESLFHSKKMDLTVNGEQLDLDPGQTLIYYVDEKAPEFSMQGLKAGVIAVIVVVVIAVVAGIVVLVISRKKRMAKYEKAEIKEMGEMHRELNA
Experimental: FIGS. 18A to 18G. […] HEK293T cells were transfected with full length or EGF like-domain deletion mutant EpCAM-V5. Antibody binding was assessed by (FIG. 8A) Western blotting, (FIG. 8B) flow cytometry, and (FIG. 8C) immunofluorescence. (FIG. 8D) EpCAM mutants were constructed with amino acid substitutions in the EGF-I (Y32A) and EGF-II (L94A, Y95A, or D96A) domains. EpCAM wild-type and mutant proteins were expressed in HEK293T cells. Binding of MT201, EpAb2-6 and EpAb23-1 to EpCAM wild-type and mutants were evaluated by (FIG. 8E) immunofluorescence, (FIG. 8F) flow cytometry, and (FIG. 8G) cellular ELISA. All data are presented as mean±SEM. *, p<0.05; **, p<0.01.
Here, we wanted to determine whether the antibody binds to EpCAM at both EGF-like domains of EpEX (FIG. 18A, FIG. 18B, FIG. 18C). To confirm that EpAb2-6 recognizes the LYD motif in EpCAM, we constructed cDNA sequences encoding the first (aa 27-59; EGF-I domain) and second (aa 66-135; EGF-II/TY domain) EGF-like repeats of EpCAM. PCR-based site-directed mutagenesis was then used to introduce mutations into each domain (FIG. 18D). The reactivity of EpAb2-6 antibody toward these EpCAM mutants was evaluated by immunofluorescence (FIG. 18E), flow cytometry (FIG. 18F), and cellular ELISA (FIG. 18G).

HCT116 cells [3] = experiment: Metastatic animal model of human CRC (HCT116 cells via tail vein); assay type: in vivo, NOD/SCID mice
Experimental: (§2) All animal experiments were approved and performed according to the regulations from the IACUC at Academia Sinica. HCT116 cells (1×10^6) were injected via tail vein for the metastatic model. Otherwise, 2×10^5 HCT116 cells with luciferase were surgically transplanted into the cecum wall for the orthotopic model. Male NOD/SCID mice, approximately 6 to 8 weeks old, were used for animal experiments (n=5 and n=6 for each treatment group in metastatic and orthotopic models respectively). At 72-h post-injection/transplantation, mice were randomly distributed into four different treatment groups. For the treatments, animals were injected with 20 mg/kg IgG or EpAb2-6 via tail vein twice a week for four weeks, or fed by oral gavage with either vehicle [0.5% methylcellulose (Sigma-Aldrich) and 0.5% Tween80 (Sigma-Aldrich)] or 5 mg/kg LGK974 (MedChemExpress) formulated with the vehicle on alternating days for four weeks, or animals were treated with the combination of both inhibitor and antibody. For the metastatic model, survival was the main endpoint. For the orthotopic model, tumor progression was monitor using bioluminescence imaging. To image the tumors, intraperitoneal injection of D-Luciferin (GOLD BIO) was performed, and images were taken 10 min post-injection.

HCT116 cells [4] = experiment: Orthotopic animal model of human CRC (HCT116 cells with luciferase in cecum wall); assay type: in vivo, NOD/SCID mice; settings: orthotopic model
Experimental: as §2

[5] = 20 mg/kg EpAb2-6 via tail vein twice a week, 5 mg/kg LGK974 oral gavage on alternating days, four weeks

MT201: adecatumumab, a human anti-EpCAM antibody that was subjected to clinical trials [reference compound]
inducing apoptosis of cancer cells [1]: failing

B1: EpEX: extracellular domain of EpCAM, produced in house by Expi293 Expression System (protein)
chain: QEECVCENYKLAVNCFVNNNRQCQCTSVGAQNTVICSKLAAKCLVMKAEMNGSKLGRRAKPEGALQNNDGLYDPDCDESGLFKAKQCNGTSMCWCVNTAGVRRTDKDTEITCSERVRTYWIIIELKHKAREKPYDSKSLRTALQKEITTRYQLDPKFITSILYENNVITIDLVQNSSQKTQNDVDIADVAYYFEKDVKGESLFHSKKMDLTVNGEQLDLDPGQTLIYYVDEKAPEFSMQGLKAGVIAVIVVVVIAVVAGIVVLVISRKKRMAKYEKAEIKEMGEMHRELNA
EpEX binding to LRP6 (recombinant LRP6): bind with all receptor proteins
EpEX binding to FZD7 (recombinant FZD7; EpEX-His alone, 2 hours, optical density at 450 nm): bind with all receptor proteins
phosphorylation of TACE and presenilin-2 (PS2) [2]: increases the phosphorylation

B2: EpAb2-6: anti-EpCAM (EpEX) neutralizing monoclonal antibody produced in mice by hybridoma; VH SEQ ID NO: 15, VL SEQ ID NO: 16 (antibody, V domains shown)
VH: VKLQESGPELKKPGETVKISCKASGYTFTDYSMHWVKQAPGKGLKWMGWINTETGEPTYADDFKGRFAFSLETSASTAYLQINNLKNEDTATYFCARTAVYWGQGTTVTVSS
VL: DIQMTQSPSSLSASLGERVSLTCRASQEISVSLSWLQQEPDGTIKRLIYATSTLDSGVPKRFSGSRSGSDYSLTISSLESEDFVDYYCLQYASYPWTFGGGTKLEIK
EpEX binding to FZD7 after pre-incubation with antibody (recombinant FZD7; EpEX-His incubated with antibody overnight): substantially decreased binding
EpCAM domains bound (EpCAM): binds to the EGF-I and EGF-II domains of EpEX; also recorded: binds to both EGF-like domain I and II of EpCAM
animal survival (HCT116 cells [3]; [5]): can prolong animal survival; also recorded: could prolong animal survival
mice died by the end of the study (HCT116 cells [3]; n=5 per group): 2 out of 5
median / overall survival (HCT116 cells [4]): relatively higher median survival
tumor progression (bioluminescence) (HCT116 cells [4]; [5]): much slower tumor progression

B3: Wnt3A: recombinant Wnt3A (R & D systems) (protein, UniProt P56704 19-352, looked up)
Protein Wnt-3a: SYPIWWSLAVGPQYSSLGSQPILCASIPGLVPKQLRFCRNYVEIMPSVAEGIKIGIQECQHQFRGRRWNCTTVHDSLAIFGPVLDKATRESAFVHAIASAGVAFAVTRSCAEGTAAICGCSSRHQGSPGKGWKWGGCSEDIEFGGMVSREFADARENRPDARSAMNRHNNEAGRQAIASHMHLKCKCHGLSGSCEVKTCWWSQPDFRAIGDFLKDKYDSASEMVVEKHRESRGWVETLRPRYTYFKVPTERDLVYYEASPNFCEPNPETGSFGTRDRTCNVSSHGIDGCDLLCCGRGHNARAERRREKCRCVFHWCCYVSCQECTRVYDVHTCK
phosphorylation of TACE and presenilin-2 (PS2) [2]: increases the phosphorylation
